# Reference: paper PMC12691602, “Cryo-EM structure of the QseG-QseE complex reveals an accessory protein-driven two-component system activation mechanism” (mBio, 2025)
# T1: QseE (Escherichia coli, UniProt Q8XA47)
# T1 chain: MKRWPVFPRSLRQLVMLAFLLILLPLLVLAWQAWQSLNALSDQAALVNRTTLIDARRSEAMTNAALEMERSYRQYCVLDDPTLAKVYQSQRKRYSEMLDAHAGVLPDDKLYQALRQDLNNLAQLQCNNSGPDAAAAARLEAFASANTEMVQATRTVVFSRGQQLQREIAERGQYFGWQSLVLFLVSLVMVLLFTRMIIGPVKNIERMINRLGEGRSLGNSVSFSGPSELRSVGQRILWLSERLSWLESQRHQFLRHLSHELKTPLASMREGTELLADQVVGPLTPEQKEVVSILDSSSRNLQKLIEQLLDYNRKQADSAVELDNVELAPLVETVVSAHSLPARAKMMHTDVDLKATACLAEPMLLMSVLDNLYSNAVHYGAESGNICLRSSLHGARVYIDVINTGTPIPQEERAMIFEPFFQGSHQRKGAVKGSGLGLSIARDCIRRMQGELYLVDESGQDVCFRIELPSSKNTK
# T2: QseE-eGFP (Salmonella enterica serovar Typhimurium …, UniProt A0A4Z0KJZ8 1-461)
# T2 construct: QseE of S. Typhimurium SL1344 fused to eGFP; source: E. coli, purified
# T2 sequence: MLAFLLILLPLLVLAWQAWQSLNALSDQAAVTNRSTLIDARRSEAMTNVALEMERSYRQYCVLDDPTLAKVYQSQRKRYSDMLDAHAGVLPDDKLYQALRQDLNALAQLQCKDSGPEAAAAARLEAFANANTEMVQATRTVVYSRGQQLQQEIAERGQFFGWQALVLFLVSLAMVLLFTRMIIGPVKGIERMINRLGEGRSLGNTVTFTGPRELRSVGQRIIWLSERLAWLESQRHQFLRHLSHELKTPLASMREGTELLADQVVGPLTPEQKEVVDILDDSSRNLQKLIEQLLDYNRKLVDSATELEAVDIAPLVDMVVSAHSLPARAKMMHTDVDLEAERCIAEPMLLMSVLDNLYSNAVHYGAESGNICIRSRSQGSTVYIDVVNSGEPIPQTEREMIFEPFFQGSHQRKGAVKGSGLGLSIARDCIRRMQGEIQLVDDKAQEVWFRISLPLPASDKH
# Key:
# [1] = target: strep-tagged QseE_(1-196) (Salmonella enterica serovar Typhimurium SL1344); assay: cross-linking; QseE constructs in solution (Fig. S2A); cross-linker and conditions not shown
# [2] = target: the molecule itself; assay: cryo-EM structure; QseG_(37-221) and QseE mixed at 3:1 molar ratio, complex separated by SEC; 3.9 Å map with C2 symmetry imposed; model limited to QseG 58-220 and QseE 34-173
# [3] = target: T1, QseE
# [4] = target: T2, QseE-eGFP; assay: MST; QseG_(37-end) in serial dilution mixed with QseE-eGFP; 20 mM HEPES pH 7.5, 150 mM NaCl, 0.02% DDM, 0.05% Tween 20; 25°C, 30 min; Monolith NT.115, medium MST power, 40% LED; settings: both partners purified
molecule,measurement,setting,value
strep-tagged QseE_(1-196) (from UniProt A0A4Z0KJZ8 1-196) (domain or fragment),stoichiometry N,[1],2
"QseG_(37-221) (domain or fragment, QseG of S. Typhimurium SL1344, residues 37-221; Homodimer in the cryo-EM structure of the complex; source: E. coli C43(DE3), purified (Strep-Tactin, on-column TEV cleavage, SEC); not shown: Strep II, N-terminal, cleaved) CVPHASQQLPDSAAQDTLPHYQLADYLPTACADIWSLRGQAVETNPLYWLRTIDCADRLMPVQSRAEARALTDDNWQNAFRRGILLADAKITPPERRAIVTRLEALSAQIPAQVRPVYQIWHDGQALQLALSAERQRYSKLQQTSDSELDALRQQQQALQTQLDLTTRKLESLTDIERQLSTRKP",stoichiometry N,[2],2
QseG (protein) CVQNHNKPAIDTPAEEKIPVYQLADYLSTECSDIWALQGKSTETNPLYWLRAMDCADRLMPAQSRQQARQYDDGSWQNTFKQGILLADAKITPYERRQLVARIEALSTEIPAQVRPLYQLWRDGQALQLQLAEERQRYSKLQQSSDSELDTLRQQHHVLQQQLELTTRKLENLTDIERQLSTRKPAGNFSPDTPHESEKPAPSTHEVTPDEP,Kd,[3],109 nM
"full-length QseE (QseEfl), C-terminal Strep II tag (natural protein, Dimer by cross-linking and in the cryo-EM structure; also called strep-tagged QseE; source: E. coli C43(DE3), purified from membranes in LMNG/CHS (Strep-Tactin, SEC); not shown: Strep II, C-terminal, kept) MLAFLLILLPLLVLAWQAWQSLNALSDQAAVTNRSTLIDARRSEAMTNVALEMERSYRQYCVLDDPTLAKVYQSQRKRYSDMLDAHAGVLPDDKLYQALRQDLNALAQLQCKDSGPEAAAAARLEAFANANTEMVQATRTVVYSRGQQLQQEIAERGQFFGWQALVLFLVSLAMVLLFTRMIIGPVKGIERMINRLGEGRSLGNTVTFTGPRELRSVGQRIIWLSERLAWLESQRHQFLRHLSHELKTPLASMREGTELLADQVVGPLTPEQKEVVDILDDSSRNLQKLIEQLLDYNRKLVDSATELEAVDIAPLVDMVVSAHSLPARAKMMHTDVDLEAERCIAEPMLLMSVLDNLYSNAVHYGAESGNICIRSRSQGSTVYIDVVNSGEPIPQTEREMIFEPFFQGSHQRKGAVKGSGLGLSIARDCIRRMQGEIQLVDDKAQEVWFRISLPLPASDKH",stoichiometry N,[2],2
"QseG (mature lipoprotein, QseG_(37-end)) (natural protein, also called wild-type QseG; source: E. coli C43(DE3), purified (Strep-Tactin, on-column TEV cleavage, SEC); not shown: Strep II, N-terminal, cleaved) CVPHASQQLPDSAAQDTLPHYQLADYLPTACADIWSLRGQAVETNPLYWLRTIDCADRLMPVQSRAEARALTDDNWQNAFRRGILLADAKITPPERRAIVTRLEALSAQIPAQVRPVYQIWHDGQALQLALSAERQRYSKLQQTSDSELDALRQQQQALQTQLDLTTRKLESLTDIERQLSTRKPAGNYNADTPHTNDKPATSEDGAAPSPSQDEVTP",Kd,[4],108 nM
